Source: US20140087995A1 (published 2014)
Numbered stars: 1 amine (or outer) side, 2 acyl side, 3 side chain; on linkers, the order of the positions; unused ones are H or OH. Bridge positions count the residues as written; N and C are the ends. Side chains are listed from the residue outwards. Ends that are not written are not given here. * marks the point of attachment. C20 diacid = O=C(O)CCCCCCCCCCCCCCCCCCC(=O)*; γGlu = O=C(O)[C@H](CCC(=O)[*:2])N[*:1]

T1: human amylin receptor (amylin 3(a) receptor: human calcitonin receptor with RAMP-3) (human, UniProt P30988 25-474; O60896 24-148)
T1 construct: whole, on cells; also called hAmylin-R; hAmylinR
T1 sequence (looked up) 1: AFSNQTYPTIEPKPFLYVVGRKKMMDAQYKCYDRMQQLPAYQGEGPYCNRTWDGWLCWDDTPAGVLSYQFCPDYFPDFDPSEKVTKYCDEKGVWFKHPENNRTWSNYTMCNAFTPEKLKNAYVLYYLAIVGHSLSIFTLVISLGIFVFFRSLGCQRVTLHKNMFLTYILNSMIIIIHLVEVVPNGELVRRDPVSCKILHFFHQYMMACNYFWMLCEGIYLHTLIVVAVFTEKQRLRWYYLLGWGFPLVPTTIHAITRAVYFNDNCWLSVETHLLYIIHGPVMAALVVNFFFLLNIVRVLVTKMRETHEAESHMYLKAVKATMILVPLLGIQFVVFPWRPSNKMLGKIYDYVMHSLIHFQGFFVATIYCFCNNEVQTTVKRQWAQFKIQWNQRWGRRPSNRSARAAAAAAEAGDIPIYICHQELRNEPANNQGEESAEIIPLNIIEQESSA
T1 sequence (looked up) 2: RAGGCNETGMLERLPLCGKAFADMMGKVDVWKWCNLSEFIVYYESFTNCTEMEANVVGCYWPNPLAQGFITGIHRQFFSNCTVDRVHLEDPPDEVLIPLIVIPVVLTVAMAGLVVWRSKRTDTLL


Target: T1, human amylin receptor (amylin 3(a) …)
Experiment: SPA displacement of 125I-rat amylin, hAmylin 3(a) receptor membranes
How it was run: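 SPA beads + BHK amylin 3(a)/CRE-luc membranes, 35 ng/μL final; buffer 50 mM Hepes pH 7.4, 1 mM CaCl2, 5 mM MgCl₂, 0.1% OA, 0.02% Tween20. 120 min, 25° C, shaken; scintillation count. IC₅₀ by one-site binding competition fit, taken as receptor affinity.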

Binder	IC50 [nM]
K([γGlu-γGlu-C20 diacid])CNTATCATQRLADFLRHSSPNFGAIPSSTNVGSDTY-NH2 (disulfide 2-7; N-terminus assumed; SMILES CC[C@H](C)[C@H](NC(=O)[C@H](C)NC(=O)CNC(=O)[C@H](Cc1ccccc1)NC(=O)[C@H](CC(N)=O)NC(=O)[C@@H]1CCCN1C(=O)[C@H](CO)NC(=O)[C@H](CO)NC(=O)[C@H](Cc1c[nH]cn1)NC(=O)[C@H](CCCNC(=N)N)NC(=O)[C@H](CC(C)C)NC(=O)[C@H](Cc1ccccc1)NC(=O)[C@H](CC(=O)O)NC(=O)[C@H](C)NC(=O)[C@H](CC(C)C)NC(=O)[C@H](CCCNC(=N)N)NC(=O)[C@H](CCC(N)=O)NC(=O)[C@@H](NC(=O)[C@H](C)NC(=O)[C@@H]1CSSC[C@H](NC(=O)[C@@H](N)CCCCNC(=O)CC[C@H](NC(=O)CC[C@H](NC(=O)CCCCCCCCCCCCCCCCCCC(=O)O)C(=O)O)C(=O)O)C(=O)N[C@@H](CC(N)=O)C(=O)N[C@@H]([C@@H](C)O)C(=O)N[C@@H](C)C(=O)N[C@@H]([C@@H](C)O)C(=O)N1)[C@@H](C)O)C(=O)N1CCC[C@H]1C(=O)N[C@@H](CO)C(=O)N[C@@H](CO)C(=O)N[C@H](C(=O)N[C@@H](CC(N)=O)C(=O)N[C@H](C(=O)NCC(=O)N[C@@H](CO)C(=O)N[C@@H](CC(=O)O)C(=O)N[C@H](C(=O)N[C@@H](Cc1ccc(O)cc1)C(N)=O)[C@@H](C)O)C(C)C)[C@@H](C)O, also called compound 2)	0.411
K([γGlu-γGlu-C20 diacid])CNTATCATQRLADFLRHSSNPFGAPLSSTNVGSDTY-NH2 (disulfide 2-7; N-terminus assumed; SMILES CC(C)C[C@H](NC(=O)[C@H](CCCNC(=N)N)NC(=O)[C@H](CCC(N)=O)NC(=O)[C@@H](NC(=O)[C@H](C)NC(=O)[C@@H]1CSSC[C@H](NC(=O)[C@@H](N)CCCCNC(=O)CC[C@H](NC(=O)CC[C@H](NC(=O)CCCCCCCCCCCCCCCCCCC(=O)O)C(=O)O)C(=O)O)C(=O)N[C@@H](CC(N)=O)C(=O)N[C@@H]([C@@H](C)O)C(=O)N[C@@H](C)C(=O)N[C@@H]([C@@H](C)O)C(=O)N1)[C@@H](C)O)C(=O)N[C@@H](C)C(=O)N[C@@H](CC(=O)O)C(=O)N[C@@H](Cc1ccccc1)C(=O)N[C@@H](CC(C)C)C(=O)N[C@@H](CCCNC(=N)N)C(=O)N[C@@H](Cc1c[nH]cn1)C(=O)N[C@@H](CO)C(=O)N[C@@H](CO)C(=O)N[C@@H](CC(N)=O)C(=O)N1CCC[C@H]1C(=O)N[C@@H](Cc1ccccc1)C(=O)NCC(=O)N[C@@H](C)C(=O)N1CCC[C@H]1C(=O)N[C@@H](CC(C)C)C(=O)N[C@@H](CO)C(=O)N[C@@H](CO)C(=O)N[C@H](C(=O)N[C@@H](CC(N)=O)C(=O)N[C@H](C(=O)NCC(=O)N[C@@H](CO)C(=O)N[C@@H](CC(=O)O)C(=O)N[C@H](C(=O)N[C@@H](Cc1ccc(O)cc1)C(N)=O)[C@@H](C)O)C(C)C)[C@@H](C)O, also called compound 3)	1.13
K([γGlu-γGlu-C20 diacid])CNTATCATQRLAEFLRHSSPNFGAIPSSTNVGHNTY-NH2 (disulfide 2-7; N-terminus assumed; SMILES CC[C@H](C)[C@H](NC(=O)[C@H](C)NC(=O)CNC(=O)[C@H](Cc1ccccc1)NC(=O)[C@H](CC(N)=O)NC(=O)[C@@H]1CCCN1C(=O)[C@H](CO)NC(=O)[C@H](CO)NC(=O)[C@H](Cc1c[nH]cn1)NC(=O)[C@H](CCCNC(=N)N)NC(=O)[C@H](CC(C)C)NC(=O)[C@H](Cc1ccccc1)NC(=O)[C@H](CCC(=O)O)NC(=O)[C@H](C)NC(=O)[C@H](CC(C)C)NC(=O)[C@H](CCCNC(=N)N)NC(=O)[C@H](CCC(N)=O)NC(=O)[C@@H](NC(=O)[C@H](C)NC(=O)[C@@H]1CSSC[C@H](NC(=O)[C@@H](N)CCCCNC(=O)CC[C@H](NC(=O)CC[C@H](NC(=O)CCCCCCCCCCCCCCCCCCC(=O)O)C(=O)O)C(=O)O)C(=O)N[C@@H](CC(N)=O)C(=O)N[C@@H]([C@@H](C)O)C(=O)N[C@@H](C)C(=O)N[C@@H]([C@@H](C)O)C(=O)N1)[C@@H](C)O)C(=O)N1CCC[C@H]1C(=O)N[C@@H](CO)C(=O)N[C@@H](CO)C(=O)N[C@H](C(=O)N[C@@H](CC(N)=O)C(=O)N[C@H](C(=O)NCC(=O)N[C@@H](Cc1c[nH]cn1)C(=O)N[C@@H](CC(N)=O)C(=O)N[C@H](C(=O)N[C@@H](Cc1ccc(O)cc1)C(N)=O)[C@@H](C)O)C(C)C)[C@@H](C)O, also called 87; compound 87)	0.633
K([γGlu-γGlu-C20 diacid])CNTATCATQRLAEFLRHSSPNFGAIPSSTNVGSRTY-NH2 (disulfide 2-7; N-terminus assumed; SMILES CC[C@H](C)[C@H](NC(=O)[C@H](C)NC(=O)CNC(=O)[C@H](Cc1ccccc1)NC(=O)[C@H](CC(N)=O)NC(=O)[C@@H]1CCCN1C(=O)[C@H](CO)NC(=O)[C@H](CO)NC(=O)[C@H](Cc1c[nH]cn1)NC(=O)[C@H](CCCNC(=N)N)NC(=O)[C@H](CC(C)C)NC(=O)[C@H](Cc1ccccc1)NC(=O)[C@H](CCC(=O)O)NC(=O)[C@H](C)NC(=O)[C@H](CC(C)C)NC(=O)[C@H](CCCNC(=N)N)NC(=O)[C@H](CCC(N)=O)NC(=O)[C@@H](NC(=O)[C@H](C)NC(=O)[C@@H]1CSSC[C@H](NC(=O)[C@@H](N)CCCCNC(=O)CC[C@H](NC(=O)CC[C@H](NC(=O)CCCCCCCCCCCCCCCCCCC(=O)O)C(=O)O)C(=O)O)C(=O)N[C@@H](CC(N)=O)C(=O)N[C@@H]([C@@H](C)O)C(=O)N[C@@H](C)C(=O)N[C@@H]([C@@H](C)O)C(=O)N1)[C@@H](C)O)C(=O)N1CCC[C@H]1C(=O)N[C@@H](CO)C(=O)N[C@@H](CO)C(=O)N[C@H](C(=O)N[C@@H](CC(N)=O)C(=O)N[C@H](C(=O)NCC(=O)N[C@@H](CO)C(=O)N[C@@H](CCCNC(=N)N)C(=O)N[C@H](C(=O)N[C@@H](Cc1ccc(O)cc1)C(N)=O)[C@@H](C)O)C(C)C)[C@@H](C)O, also called 89; compound 89)	1.16
K([γGlu-γGlu-C20 diacid])CNTATCATQRLAEFLRHSSPNFGAIPSSTNVGRNTY-NH2 (disulfide 2-7; N-terminus assumed; SMILES CC[C@H](C)[C@H](NC(=O)[C@H](C)NC(=O)CNC(=O)[C@H](Cc1ccccc1)NC(=O)[C@H](CC(N)=O)NC(=O)[C@@H]1CCCN1C(=O)[C@H](CO)NC(=O)[C@H](CO)NC(=O)[C@H](Cc1c[nH]cn1)NC(=O)[C@H](CCCNC(=N)N)NC(=O)[C@H](CC(C)C)NC(=O)[C@H](Cc1ccccc1)NC(=O)[C@H](CCC(=O)O)NC(=O)[C@H](C)NC(=O)[C@H](CC(C)C)NC(=O)[C@H](CCCNC(=N)N)NC(=O)[C@H](CCC(N)=O)NC(=O)[C@@H](NC(=O)[C@H](C)NC(=O)[C@@H]1CSSC[C@H](NC(=O)[C@@H](N)CCCCNC(=O)CC[C@H](NC(=O)CC[C@H](NC(=O)CCCCCCCCCCCCCCCCCCC(=O)O)C(=O)O)C(=O)O)C(=O)N[C@@H](CC(N)=O)C(=O)N[C@@H]([C@@H](C)O)C(=O)N[C@@H](C)C(=O)N[C@@H]([C@@H](C)O)C(=O)N1)[C@@H](C)O)C(=O)N1CCC[C@H]1C(=O)N[C@@H](CO)C(=O)N[C@@H](CO)C(=O)N[C@H](C(=O)N[C@@H](CC(N)=O)C(=O)N[C@H](C(=O)NCC(=O)N[C@@H](CCCNC(=N)N)C(=O)N[C@@H](CC(N)=O)C(=O)N[C@H](C(=O)N[C@@H](Cc1ccc(O)cc1)C(N)=O)[C@@H](C)O)C(C)C)[C@@H](C)O, also called 88; compound 88)	0.75
